From paper PMC7157747 come the findings set out here.

The test addresses Recombinant Surface Immunogenic Protein (rSIP) of Group B Streptococcus, expressed in E. coli (Group B Streptococcus (GBS), serotype III). Put plainly: SEC; Size exclusion chromatography by HPLC of purified rSIP; PSS-pro kit as standard curve for molecular mass; 6 M urea used as monomer control.

For the substance “Recombinant Surface Immunogenic Protein (rSIP) of Group B Streptococcus, expressed in E. coli (natural protein)”, the stoichiometry N is 2.
